Laboratory results as given in US20220195063A1 (BYONDIS B V, published 2022).
Positions count from the first letter of the chain named.

B1: anti-SIRPα antibody 10 humanized (antibody, human IgG1, kappa, L234A L235A, V domains shown)
VH: KVEESGGGLVQPGGSLRLSCAASGFSLSSYVMGWVRQAPGKGLEWVSIISSSGSPYYASWVNGRFTISKDNSEGMVYLQMNSLRAEDTAVYYCARVGPLGVDYFNIWGQGTTVTVSS
VL: DIVMTQSPDSLAVSLGERATINCQAGQSINSYLAWYQQKPGQPPKLLIYYASTLESGVPDRFSGSGSGTDFTLTISSLQAEDVAVYYCQSWHYISRSYAFGGGTKLEIKR
notes: Humanized, human IgG1 LALA / kappa
B2: anti-SIRPα antibody 11 humanized (antibody, human IgG1, kappa, L234A L235A, V domains shown)
VH: EVKVEESGGGLVQPGGSLRLSCAASGFSLSSYVMGWVRQAPGKGLEWVSIISSSGSPYYASWVNGRFTISKTSTTMDLQMNSLRAEDTAVYYCARVGPLGVDYFNIWGQGTTVTVSS
VL: DIQMTQSPSSLSASVGDRVTITCQAGQSINSYLAWYQQKPGKVPKLLIYYASTLESGVPSRFSGSGSGTDFTLTISSLQPEDVATYYCQSWHYISRSYAFGQGTKVEIKR
notes: as for B1
B3: anti-SIRPα antibody 13 humanized (antibody, human IgG1, V domains shown)
VH: RQLVESGGGLVQPGGSLRLSCTASGFSLSSHGISWVRQAPGKGLEYIGTIGTGVITYFASWAKGRFTGSKTSSTAYMELSSLRSEDTAVYFCARGSAWNDPFDPWGQGTLVTVSS
VL: AIQMTQSPSSLSASVGDRVTITCQASQSVYGNNDLAWYQQKPGKAPKLLIYLASTLATGVPSRFSGSGSGTDFTLTISSLQPEDFATYYCLGGGDDEADNVFGGGTKVEIKR
notes: as for B1
B4: anti-SIRPα antibody 14 humanized (antibody, human IgG1, V domains shown)
VH: B3 VH
VL: B3 VL with A1D, Q3E, L11V, I21L, K44Q
notes: as for B1
B5: anti-SIRPα antibody 3 (antibody, human IgG1, kappa, L234A L235A, V domains shown)
VH: QSVEESGGRLVTPGTPLTLACTVSGFSLISYYISWVRQAPEKGLEYIGIINIGGGASYASWAKGRFTISKTSTTVDLKITSPTPEDTATYFCAMSYGMDTGAFNIWGPGTLVTVSL
VL: AQVLTQTPASVSAAVGGTVTISCQSSESVYKNNFLSWYQQKPGKPPKLLIYGASTLASGVPSRFKGSGSGTQFTLTISDLESDDAATYFCQGGYRTDIYPFGGGTEVVVKR
notes: Rabbit variable regions on human IgG1 LALA / kappa

Assays:
[1] = target: human SIRPαBIT expressed on cells (human) (UniProt P78324); assay: flow cytometry, ExpiCHO-S cells
human SIRPαBIT expressed on cells (human), sequence (P78324 31-504): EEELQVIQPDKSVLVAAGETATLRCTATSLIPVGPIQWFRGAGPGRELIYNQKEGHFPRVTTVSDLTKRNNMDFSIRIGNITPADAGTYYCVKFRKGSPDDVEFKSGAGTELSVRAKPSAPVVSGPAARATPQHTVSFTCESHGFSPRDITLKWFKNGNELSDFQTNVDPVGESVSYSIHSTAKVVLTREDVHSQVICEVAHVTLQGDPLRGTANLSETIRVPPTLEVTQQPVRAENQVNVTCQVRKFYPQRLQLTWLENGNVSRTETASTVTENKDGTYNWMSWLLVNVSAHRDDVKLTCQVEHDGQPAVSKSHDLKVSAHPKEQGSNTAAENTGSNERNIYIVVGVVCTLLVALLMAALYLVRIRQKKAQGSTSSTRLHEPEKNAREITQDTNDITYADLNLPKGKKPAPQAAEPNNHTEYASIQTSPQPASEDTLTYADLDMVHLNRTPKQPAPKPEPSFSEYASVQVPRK

[2] = target: T1, human SIRPα1 (huSIRPα1), protein antigen (human, UniProt P78324 31-370, limits assumed, biotinylated in the SPR assay); assay: SPR, biotinylated antigen captured, 25 C
T1 construct: Coated on the plate in ELISA, biotinylated and captured in SPR; also called v2
T1 sequence (P78324 other isoform, or with tags, fused parts or gaps limits assumed): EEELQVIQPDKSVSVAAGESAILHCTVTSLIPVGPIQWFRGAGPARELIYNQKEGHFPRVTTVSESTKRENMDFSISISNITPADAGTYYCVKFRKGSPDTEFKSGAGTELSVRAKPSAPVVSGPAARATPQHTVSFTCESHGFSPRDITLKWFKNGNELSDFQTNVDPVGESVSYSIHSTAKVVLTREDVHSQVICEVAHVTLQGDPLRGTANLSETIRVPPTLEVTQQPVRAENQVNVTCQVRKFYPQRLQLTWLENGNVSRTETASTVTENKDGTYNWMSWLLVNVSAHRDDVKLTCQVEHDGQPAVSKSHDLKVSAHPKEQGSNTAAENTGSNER
Experimental: (§1) Surface Plasmon Resonance (SPR) assay: Affinity analysis was performed by single cycle kinetics analysis on a Surface Plasmon Resonance apparatus (Biacore T200 system, GE Life Sciences) at 25° C. Biotinylated SIRP antigens were captured on the surface of a chip suitable for biotinylated molecules (Sensor Chip CAP, GE Life Sciences) by injecting 5 μg/ml of the SIRP antigen in running buffer (10 mM HEPES buffer at pH 7.4 with 150 mM NaCl, 3 mM EDTA and 0.005% v/v polyoxyethylene (20) sorbitan monolaurate (Surfactant P20) for 60 sec at 10 μL/min after injection of a streptavidin conjugate (20× diluted biotin CAPture reagent, GE Life Sciences) for 60 sec at 10 μl/min. Baseline stabilization was set at 1 min after which five increasing concentrations of an anti-SIRP antibody in running buffer (10 mM HEPES buffer at pH 7.4 with 150 mM NaCl, 3 mM EDTA and 0.005% v/v polyoxyethylene (20) sorbitan monolaurate) were injected. For each step an association time of 150 sec was used, followed by a dissociation time of 1200 sec at the highest concentration only, all at a flow rate of 30 μL/min. Regeneration was performed with 6 M guanidine-HCl, 0.25 M NaOH solution (60 sec with flow rate of 30 μL/min). Double blank subtraction was performed on the observed sensorgrams using a non anti-SIRP (blank) immobilized reference flow channel and running buffer injection. Sensorgrams were fitted with a 1:1 Langmuir model for all tested anti-SIRP antibodies. The kinetic parameters (kₐ, kd and KD) were calculated using the Biacore T200 evaluation software (v3.1).

human SIRPγ (huSIRPγ) [3] = target: T2, human SIRPγ (huSIRPγ) (human, UniProt Q9P1W8 29-360, limits assumed, biotinylated in the SPR assay); assay: SPR, biotinylated antigen captured, 25 C
T2 construct: Coated on the plate in ELISA, biotinylated and captured in SPR
T2 sequence (Q9P1W8 29-360 limits assumed): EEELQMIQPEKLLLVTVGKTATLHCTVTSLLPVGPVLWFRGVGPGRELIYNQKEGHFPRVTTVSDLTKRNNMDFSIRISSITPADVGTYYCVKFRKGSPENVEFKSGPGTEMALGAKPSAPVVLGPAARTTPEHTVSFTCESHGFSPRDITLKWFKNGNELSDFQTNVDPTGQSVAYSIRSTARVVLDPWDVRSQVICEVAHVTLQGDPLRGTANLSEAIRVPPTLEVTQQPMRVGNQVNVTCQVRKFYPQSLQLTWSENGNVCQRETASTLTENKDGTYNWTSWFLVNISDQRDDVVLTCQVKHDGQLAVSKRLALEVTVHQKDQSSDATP
Experimental: as §1

[4] = target: human SIRPαBIT expressed on cells (human) (UniProt P78324); assay: flow cytometry, U937 cells
[5] = target: T3, human SIRPα1 expressed on cells (human, UniProt P78324 31-504); assay: flow cytometry, ExpiCHO-S cells
T3 construct: whole, on cells; also called ExpiCHO-S (huSIRPα1); CHO cells expressing huSIRPα1
T3 sequence (P78324 other isoform, or with tags, fused parts or gaps limits assumed): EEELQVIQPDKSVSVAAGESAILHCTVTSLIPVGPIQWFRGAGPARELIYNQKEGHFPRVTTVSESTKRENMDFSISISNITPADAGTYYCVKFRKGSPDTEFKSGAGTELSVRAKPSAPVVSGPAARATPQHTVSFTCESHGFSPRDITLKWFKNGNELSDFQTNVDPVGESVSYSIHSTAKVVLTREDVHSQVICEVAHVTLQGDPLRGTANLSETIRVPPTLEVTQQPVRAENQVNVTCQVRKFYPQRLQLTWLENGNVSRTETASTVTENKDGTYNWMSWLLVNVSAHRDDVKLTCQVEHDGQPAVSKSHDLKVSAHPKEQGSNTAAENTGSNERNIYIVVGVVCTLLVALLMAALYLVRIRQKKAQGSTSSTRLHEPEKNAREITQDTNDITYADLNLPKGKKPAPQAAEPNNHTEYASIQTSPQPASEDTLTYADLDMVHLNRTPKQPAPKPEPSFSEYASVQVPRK
Description: (§2) Flow Cytometry: U937 cells endogenously expressing human SIRPαBIT antigen and cells derived from a non-engineered subclone that has been screened and isolated from CHO-S Chinese hamster ovary cells (ExpiCHO-S) cells expressing human SIRPα₁, SIRPαBIT or cySIRPα antigen (100,000 cells/well in a 96-well plate) were washed three times with ice-cold FACS buffer (1×PBS (LONZA) containing 0.2% v/w BSA (Sigma-Aldrich, St. Louis, Mo.) and 0.02% v/w NaN₃ (Sigma-Aldrich), followed by the addition of a concentration range of each primary mAb (50 μL/well) diluted in ice-cold FACS buffer. After an incubation time of 30 min at 4° C., the cells were washed three times with ice-cold FACS buffer and 50 μL/well secondary mAb (AffiniPure F(ab′)₂ fragment Goat-anti-human IgG-APC, 1:6,000 dilution, Jackson Immuno Research) was added. After 30 min at 4° C., cells were washed twice and resuspended in 150 μL FACS buffer. Fluorescence intensities were determined by flow cytometry (BD FACSVerse, Franklin Lakes, N.J.) and indicated as the median fluorescence intensity (MFI-Median) for U937 cells and ExpiCHO-S cells. Curves were fitted by nonlinear regression using the sigmoidal dose-response equation with variable slope (four parameters) in GraphPad Prism (version 7.02 for Windows, GraphPad, San Diego, Calif.). EC₅₀ values were calculated as the concentration in μg/mL that gives a response half way between bottom and top of the curve, when using a 4-parameter logistic fit.

[6] = target: T4, cynomolgus SIRPα expressed on cells (cynomolgus monkey, UniProt A0A2K5VYQ9 31-507); assay: flow cytometry, ExpiCHO-S cells
T4 construct: whole, on cells; also called ExpiCHO-S (cySIRPα)
T4 sequence: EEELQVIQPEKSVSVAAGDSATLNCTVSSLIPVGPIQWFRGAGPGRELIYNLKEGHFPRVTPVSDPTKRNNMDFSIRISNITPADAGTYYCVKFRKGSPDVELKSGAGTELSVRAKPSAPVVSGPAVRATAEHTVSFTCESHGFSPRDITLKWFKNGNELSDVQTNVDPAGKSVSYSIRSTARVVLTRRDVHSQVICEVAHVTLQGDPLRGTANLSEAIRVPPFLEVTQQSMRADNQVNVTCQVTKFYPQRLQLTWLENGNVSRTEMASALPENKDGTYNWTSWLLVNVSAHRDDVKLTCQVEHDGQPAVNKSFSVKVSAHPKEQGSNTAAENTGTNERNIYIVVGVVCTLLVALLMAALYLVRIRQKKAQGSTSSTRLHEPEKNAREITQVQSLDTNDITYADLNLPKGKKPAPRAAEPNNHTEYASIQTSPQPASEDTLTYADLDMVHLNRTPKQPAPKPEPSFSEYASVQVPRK
Description: as §2

[7] = target: human SIRPαBIT (huSIRPαBIT), protein antigen (human) (UniProt P78324); assay: SPR, biotinylated antigen captured, 25 C
human SIRPαBIT (huSIRPαBIT), protein antigen (human), sequence (P78324 31-370): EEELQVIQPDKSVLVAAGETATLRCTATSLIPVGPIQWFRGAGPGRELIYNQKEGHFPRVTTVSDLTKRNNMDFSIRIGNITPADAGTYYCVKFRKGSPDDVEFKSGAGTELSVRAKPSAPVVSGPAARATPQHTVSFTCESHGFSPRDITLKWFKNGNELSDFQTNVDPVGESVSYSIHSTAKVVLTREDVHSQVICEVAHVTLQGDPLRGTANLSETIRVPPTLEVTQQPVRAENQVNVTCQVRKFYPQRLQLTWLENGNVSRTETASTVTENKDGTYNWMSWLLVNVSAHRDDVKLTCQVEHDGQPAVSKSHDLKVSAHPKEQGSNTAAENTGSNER

[8] = target: T1, human SIRPα1 (huSIRPα1), protein antigen; assay: ELISA, antigen coated
Experimental: (§3) ELISA assay: Solutions of huSIRPα₁, huSIRPαBIT, huSIRPβ₁ᵥ₁, huSIRPβ₁ᵥ₂, huSIRPγ and cySIRPα in phosphate buffered saline (PBS) were each added to a multiple well black polystyrene plate for ELISA and allowed to adhere for 1 h at RT. Unbound protein was removed with three washing steps using standard washing buffer. Subsequently, blocking buffer was added to the wells. After 1 h incubation at RT, the wells were washed three times with standard washing buffer. The antibodies in buffer at various concentrations were added to the wells and incubated at RT for 1 h. Unbound antibodies were removed with three washing steps using standard washing buffer. Goat anti human IgG (Fab′)₂:horse radish peroxidase (HRP) in buffer was added to the wells and incubated at RT for 1 h. 3,3′,5,5′-Tetramethylbenzidine (TMB) was added and after sufficient colour development HCl was added. Absorbance was read at 450 nm/620 nm.

[9] = target: T5, human SIRPβ1v2 (huSIRPβ1v2) (human, UniProt Q5TFQ8 30-371); assay: ELISA, antigen coated
T5 construct: Coated on the plate in ELISA; Only the Ensembl protein number is printed; also called huSIRPß1v2
T5 sequence (Q5TFQ8 30-371 limits assumed): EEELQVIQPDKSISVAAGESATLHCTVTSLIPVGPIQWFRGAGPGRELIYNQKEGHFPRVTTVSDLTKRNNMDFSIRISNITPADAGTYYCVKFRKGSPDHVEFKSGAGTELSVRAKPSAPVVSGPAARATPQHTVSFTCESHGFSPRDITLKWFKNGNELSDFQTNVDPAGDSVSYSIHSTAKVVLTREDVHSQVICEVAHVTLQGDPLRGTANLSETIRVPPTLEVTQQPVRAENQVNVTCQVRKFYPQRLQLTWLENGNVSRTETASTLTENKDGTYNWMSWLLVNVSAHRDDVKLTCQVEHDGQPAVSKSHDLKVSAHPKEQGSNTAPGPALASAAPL
Experimental: as §3

[10] = target: T6, cynomolgus SIRPα (cySIRPα), protein antigen (cynomolgus monkey, UniProt A0A2K5VYQ9 31-369); assay: ELISA, antigen coated
T6 construct: Coated on the plate in ELISA
T6 sequence: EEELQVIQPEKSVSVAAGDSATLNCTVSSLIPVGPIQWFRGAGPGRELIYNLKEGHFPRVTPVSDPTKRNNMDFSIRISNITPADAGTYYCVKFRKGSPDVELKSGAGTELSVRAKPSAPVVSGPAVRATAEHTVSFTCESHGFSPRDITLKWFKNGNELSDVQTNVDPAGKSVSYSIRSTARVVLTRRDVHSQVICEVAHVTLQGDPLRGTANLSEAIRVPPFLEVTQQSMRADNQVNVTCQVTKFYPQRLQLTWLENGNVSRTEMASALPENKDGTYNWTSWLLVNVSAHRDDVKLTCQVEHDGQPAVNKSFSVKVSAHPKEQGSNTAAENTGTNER
Experimental: as §3

[11] = target: human SIRPβ1v1 (huSIRPβ1v1) (human) (UniProt O00241); assay: ELISA, antigen coated
human SIRPβ1v1 (huSIRPβ1v1) (human), sequence (O00241 30-371): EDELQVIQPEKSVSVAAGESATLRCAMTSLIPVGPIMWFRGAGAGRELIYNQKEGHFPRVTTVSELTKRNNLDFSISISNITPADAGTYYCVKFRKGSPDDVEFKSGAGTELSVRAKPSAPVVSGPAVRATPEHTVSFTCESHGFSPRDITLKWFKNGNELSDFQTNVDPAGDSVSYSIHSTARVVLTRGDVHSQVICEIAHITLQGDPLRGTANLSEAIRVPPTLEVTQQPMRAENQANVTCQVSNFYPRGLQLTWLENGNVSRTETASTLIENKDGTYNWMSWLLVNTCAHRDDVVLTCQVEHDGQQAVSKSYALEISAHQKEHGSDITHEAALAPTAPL

[12] = target: human SIRPαBIT (huSIRPαBIT), protein antigen (human) (UniProt P78324); assay: ELISA, antigen coated
human SIRPγ (huSIRPγ) [13] = target: T2, human SIRPγ (huSIRPγ); assay: ELISA, antigen coated; ELISA (Table 2); finite EC50, below the 100,000 ng/ml cap
Experimental: as §3

Binder | EC50 [1] [µg/mL] | Kd [2] [nM] | binding result (human SIRPγ (huSIRPγ) [3]) | EC50 [4] [µg/mL] | EC50 [5] [µg/mL] | EC50 [6] [µg/mL] | Kd [7] [nM] | EC50 [8] [µg/mL] | EC50 [9] [µg/mL] | EC50 [10] [µg/mL] | EC50 [11] [µg/mL] | EC50 [12] [µg/mL] | EC50 (human SIRPγ (huSIRPγ) [13]) [µg/mL]
B1 | 0.2 | 3.2 | no binding | 0.17 | 0.38 | 0.27 | < 0.01 |  |  |  |  |  | 
B2 | 0.3 | 41 | no binding | 0.13 | 1.05 | 0.32 | 0.14 |  |  |  |  |  | 
B3 | 0.23 | < 0.01 | no binding | 0.14 | 0.36 | 0.44 | 0.012 |  |  |  |  |  | 
B4 | 0.29 | < 0.01 | no binding | 0.22 | 0.37 | 0.38 | 0.089 |  |  |  |  |  | 
B5 |  |  |  | 0.22 |  |  |  | 0.015 | 0.089 | 0.036 | > 100 | 0.024 | 5.22
